Key:
Assay in all cases: FRET or BRET; 2pFLIM-FRET in single dendritic spines of CA1 pyramidal neurons, organotypic hippocampal slices; train of two-photon glutamate uncaging (0.49 Hz, 30 pulses, sLTP protocol) without extracellular Mg^2+; room temperature (25–27 °C); 128 ms/frame; decay after the train fitted with a double exponential; T286A in slices of Camk2a^T286A knock-in mice
[1] = target: mEGFP-CaMKIIα^T286A (Rattus norvegicus) (UniProt P11275)
[2] = target: mEGFP-CaMKIIα^T305A/T306A (Rattus norvegicus) (UniProt P11275)
[3] = target: mEGFP-CaMKIIα (wildtype) (Rattus norvegicus) (UniProt P11275)

Substance | dissociation time constant (tau fast, decay after the train) [1] [s] | dissociation time constant (tau fast, decay after the train) [2] [s] | dissociation time constant (tau fast, decay after the train) [3] [s]
mCherry-CaM (from UniProt P0DP26 1-149) (natural protein) | 1 | 9.3 | –
mCherry-CaM (from UniProt P0DP26 1-149) (natural protein; other documents disagree on this pair) | – | – | 3.2
